Reference: the nanobody polyreactivity screen of Harvey et al. (2022)

Assay: yeast display, Sf9 membrane polyspecificity reagent, FACS + sequencing; frameworks hold sequencing errors
Outline: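 Nanobodies came from a synthetic yeast display library in Saccharomyces cerevisiae BJ5465, induced with galactose for 36–48 hours and stained for 1 hour at 4 °C with 10% biotinylated, detergent-solubilized Sf9 membrane reagent. Cells were enriched on streptavidin microbeads and then FACS-sorted, with low and high (top ~1%) gates set on anti-HA fluorescence for expression and streptavidin fluorescence for reagent binding. Each polyreactivity label reflects the gate a clone came from. Genes were amplified by colony PCR, sequenced by MiSeq 2 × 250 and filtered by CDR length.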

Sequence | polyreactivity (PSR sort gate)
QVQLVESGGGLVQAGGSLRLSCAASGYIFNYAIGWYRQAPRKESELVAAITWDGSSTNYADSVKGRFTISRDNAKNTVYLQMKSLKPEDTAVYYCNARGRWTFNGFWFTYNYWGQGTQVTVSS | high polyreactivity
QVQLVESGGGLVQAGGSLRLSCAASGRTSWRYAMGWYRQAPGKERELVAANNRGGSTYYADSVKGRFTISRDNAKNTVYLQMNSLKPEDTAVYYCAVDTPLEYYHQQAYVAGEYWGQGTQVTVSS | low polyreactivity
QVLLVESGGGLFQAGGRLRVSCAASGSTLLRYAMGWYRQAPGKERELVAAISGTGSRTYYADSVKGRFTISRDNAKNTVYLKMISLNPEDTAVYYCYACPYRLTEIDYWGQGTPVTVSS | high polyreactivity
QVQLVDSGGGLVQAGGSLRLSCAASGRTFGYYAMGWYRQAPGKERELVAAISGSGGSTYYADSVKGRFTISRDNAKNTVYLQMNSLIPEDTAVYYCIVYPPYAMDYWGQGTQVTVSS | high polyreactivity
QVQLVESGGGLVQAGGSLRLSCAASGRTFRRYAMGWYRQAPGKERELVAAITSGGDTYYADSVKGRFTISRDNAKNTVYLQMNSLKPEDTAVYYCNAASVTRRTGIRAVDFDYWGQGTQVTVSS | high polyreactivity
QVQLVESGGGLVQAGGSLRLSCPATGSTFGSYAMAWYRPAPGKERELVADISSRGASTYYADSVKGRFTISRDNAKNTVYLQMNSLKPEDTAVYYCARDVYIWYGYGYFPEYEYWGQGTQVTVSS | low polyreactivity
QVQLVESGGGLVQAGGSLRLSCAASGGTFYVKDMAWYRQAPWNERDLVATITYSGTSTYYADSVKGRFTISRDNAKNTVYLQMKSLKPEDTAVYYCATDVLLYFEPVNLDYWGQGTQVTVSS | low polyreactivity
QVQLVESGGGLVQAGGSLRLSCAASGSIIDYYARGWYRQAPGKERELVAAISDSGSTYYADSVKGRFTISRDNAKNTVYLQMNSLKPEDTAVYYCAAVLWSPYRSEPLDTYEYWGQGTQVNVSS | low polyreactivity
QVQLVESGGGLVQAGGSLRLSCAASGFLPNAMGWYRQAPGKERELVAAISSRGGSTYYADSVKGRFTISRDNAKNTVYLQMISLKPEDTAVYYCAATYYGRDGYRYDYWGQGTQVTVSS | high polyreactivity
QVQLVESGGGLVQAGGSLRLSCAASGRTFSKYAMGWYRQAPGKERELVAAIRWSGGSTYYADSVKGRFTISRDNAKNTVYLQMNSLKPEDTAVYYSAKRSRGLKFDYWGLGTQVTVSS | high polyreactivity
QVQLVESGGGLVQAGGRLRLSCAASGSTFKIYAMGWYRQAPGKERELVARITGRGGSTYYADSVKGRFTISRDNAKNTVYLQLNSLKPEDSAVYYCAARVYTYYYDLHKRFYWGHGTQVTVSS | high polyreactivity
QVQLVESGGGLVQAGGSLRLTCAASGRIFTRYMGWYRQAPGKERELVATINWSGGSTYYADSVKGRFTISRDNEKNTFYLQMNSLKPEDTAVYYCNARNVHFYYVQYNGAKIFDYWGQGTQVTVSS | low polyreactivity
QVQLVESGGGLVQAGGSIRLSCAASGRTLPEYVMGWYRQAPGKERELVAAITTAGSTNYADSVKGRFTISRDNAKNTVYLQINCLKPEDTAVYYCAGTTRSRGFRDIDYWGQGTQVTVSS | low polyreactivity
QVQLLESGGGLVQAGGSLRLSCAASGFTFWYYAMGWYRQAPGKEREFVASISWNGGRTYYADSVKGRFTISRDNAMNTVYLQMNSLKPEDTAVYYCATRVIYSFTDFKGDYWGQGTQVTVSS | high polyreactivity
QVQLVESGGGLVQAGGSLRLSCAASGSTFRYYAMGWYRLAPGKERELVAAITASGTSTYYADSVKGRFTISRDNAKNTVYLQMNSLKPEDTAVYYCAARWRYGYYWGQGTQVTVSS | high polyreactivity
QVHLVESGGGIVQAGGSLPLTCAAYGSIFNRYAMGWYRPAPGKERQLVAAISLTSGSTYYADYVKGRFTISRDNEKITVYLQMNSLKPEDTAVYYCATRRKVGPTQVGFYYRGGVDYWGQGTQVTVSS | high polyreactivity
QVQLVESGGGLVQAGGSLRLSCAASGSTFTRNAMGWYRQAPGKERELVAVISSRGGRTYYADSVKGRFTISRDNAKNTVYLQMNSLKPEDTAVYYCAARYVIPLGNSYDYWGQGTQVTVSS | high polyreactivity
